Data on three substances can be found in patent US20230140293A1.

Bounds are passed on as bounds.

The target of experiment [1] is CH505 TF chimeric SOSIP.III trimer (CH505TFchim.6R.SOSIP.664V4.1) (HIV-1 (CH505 gp120 / BG505 gp41 chimera)). As to the kind of experiment: negative stain EM; 1 to 1 ratio of CH103 and gp140.
The target of experiment [2] is HIV-1 Env 426c, Env-pseudotyped virus produced in 293S GnTI- cells (Man5-enriched) (HIV-1 clade C strain 426c). Briefly: cell-based or functional assay.
For experiment [3], the target named is CH0505TF.gly3.461 Env, pseudotyped virus produced in 293S GnTI- cells (HIV-1). Briefly: cell-based or functional assay.
For experiment [4], the target named is HIV-1 Env 426c.TM (N276D.N460D.N463D), Env-pseudotyped virus produced in 293T cells (HIV-1 clade C strain 426c). As to the kind of experiment: cell-based or functional assay.
In experiment [5] the target is CH0505TF.gly3.276 Env, pseudotyped virus produced in 293S GnTI- cells (HIV-1). As to the kind of experiment: cell-based or functional assay.
For experiment [6], the target named is CH0505TF.gly4.G458Y Env, pseudotyped virus produced in 293S GnTI- cells (HIV-1). As to the kind of experiment: cell-based or functional assay.
For experiment [7], the target named is CH0505TF.gly4 Env, pseudotyped virus produced in 293S GnTI- cells (HIV-1). As to the kind of experiment: cell-based or functional assay.
For experiment [8], the target named is HIV-1 Env 426c.DM (N460D.N463D), Env-pseudotyped virus produced in 293T cells (HIV-1 clade C strain 426c). Briefly: cell-based or functional assay.
For experiment [9], the target named is HIV-1 Env 426c.DM (N460D.N463D), Env-pseudotyped virus produced in 293S GnTI- cells (Man5-enriched) (HIV-1 clade C strain 426c). Briefly: cell-based or functional assay.
Experiment [10] deals with HIV-1 Env 426c.TM (N276D.N460D.N463D), Env-pseudotyped virus produced in 293S GnTI- cells (Man5-enriched) (HIV-1 clade C strain 426c). As to the kind of experiment: cell-based or functional assay.
Experiment [11] has as its target CH0505TF.gly4 Env, Env-pseudotyped virus produced in 293T cells (HIV-1). Briefly: cell-based or functional assay.
In experiment [12] the target is CH0505TF.G458Y Env, pseudotyped virus produced in 293S GnTI- cells (HIV-1). As to the kind of experiment: cell-based or functional assay.
Experiment [13] concerns the target CH0505TF.gly3.197 Env, Env-pseudotyped virus produced in 293T cells (HIV-1). As to the kind of experiment: cell-based or functional assay.
Experiment [14] has as its target CH0505TF Env, Env-pseudotyped virus produced in 293T cells (HIV-1). As to the kind of experiment: cell-based or functional assay.
Experiment [15] has as its target CH0505TF.gly4.G458Y Env, pseudotyped virus produced in 293T cells (HIV-1). Briefly: cell-based or functional assay.
Experiment [16] has as its target CH0505TF.G458Y Env, Env-pseudotyped virus produced in 293T cells (HIV-1). As to the kind of experiment: cell-based or functional assay.
The target of experiment [17] is HIV-1 Env 426c, Env-pseudotyped virus produced in 293T cells (HIV-1 clade C strain 426c). As to the kind of experiment: cell-based or functional assay.
In experiment [18] the target is CH0505TF.gly3.461 Env, Env-pseudotyped virus produced in 293T cells (HIV-1). Briefly: cell-based or functional assay.
Experiment [19] has as its target CH0505TF.gly3.197 Env, pseudotyped virus produced in 293S GnTI- cells (HIV-1). As to the kind of experiment: cell-based or functional assay.
The target of experiment [20] is CH0505TF.gly3.276 Env, Env-pseudotyped virus produced in 293T cells (HIV-1). As to the kind of experiment: cell-based or functional assay.
Experiment [21] addresses HIV-1 Env 426c.TM4 (S278R.G471S.N460D.N463D), Env-pseudotyped virus produced in 293T cells (HIV-1 clade C strain 426c). Briefly: cell-based or functional assay.
The target in experiment [22] is CH0505TF Env, pseudotyped virus produced in 293S GnTI- cells (HIV-1). Briefly: cell-based or functional assay.
The target of experiment [23] is HIV-1 Env 426c.SM (N276D), Env-pseudotyped virus produced in 293T cells (HIV-1 clade C strain 426c). Briefly: cell-based or functional assay.
Experiment [24] has as its target CH0505.w4.3 Env, Env-pseudotyped virus produced in 293T cells (HIV-1). Briefly: cell-based or functional assay.
The target of experiment [25] is HIV-1 Env 426c.SM (N276D), Env-pseudotyped virus produced in 293S GnTI- cells (Man5-enriched) (HIV-1 clade C strain 426c). As to the kind of experiment: cell-based or functional assay.
The target of experiment [26] is HIV-1 Env 426c.TM4 (S278R.G471S.N460D.N463D), Env-pseudotyped virus produced in 293S GnTI- cells (Man5-enriched) (HIV-1 clade C strain 426c). As to the kind of experiment: cell-based or functional assay.
Experiment [27] concerns the target CH0505.w4.3 Env, pseudotyped virus produced in 293S GnTI- cells (HIV-1). As to the kind of experiment: cell-based or functional assay.
Experiment [28] addresses HIV-1 CH0505TF.G458Y Env on Env-pseudotyped virus produced in 293T cells (HIV-1). Briefly: cell-based or functional assay.
Experiment [29] has as its target HIV-1 CH0505TF.G458Y Env on Env-pseudotyped virus produced in 293S GnTI-/- cells (Man5-enrichment) (HIV-1). Briefly: cell-based or functional assay.
The target of experiment [30] is HIV-1 CH0505TF.N280D Env on Env-pseudotyped virus produced in 293S GnTI- cells (HIV-1). As to the kind of experiment: cell-based or functional assay.
The target of experiment [31] is HIV-1 CH0505TF.S365P Env on Env-pseudotyped virus produced in 293S GnTI- cells (HIV-1). As to the kind of experiment: cell-based or functional assay.
Experiment [32] deals with HIV-1 CH0505TF.N280D Env on Env-pseudotyped virus produced in 293T cells (HIV-1). Briefly: cell-based or functional assay.
Experiment [33] addresses HIV-1 CH0505TF (CH505 transmitted/founder) Env on Env-pseudotyped virus produced in 293T cells (HIV-1). Briefly: cell-based or functional assay.
The target in experiment [34] is HIV-1 CH0505TF Env on Env-pseudotyped virus produced in 293S/GnTI-/- cells (Man5-enrichment) (HIV-1). Briefly: cell-based or functional assay.
The target in experiment [35] is HIV-1 CH0505TF.S365P Env on Env-pseudotyped virus produced in 293T cells (HIV-1). As to the kind of experiment: cell-based or functional assay.
Experiment [36] addresses CH505 TF chimeric SOSIP.III trimer (CH505TFchim.6R.SOSIP.664V4.1) (HIV-1 (CH505 gp120 / BG505 gp41 chimera)). As to the kind of experiment: kinetics, method not named (FIG. 69); reference CH505 TF gp120.
In experiment [37] the target is CH505 transmitted/founder (TF) gp120 (HIV-1). As to the kind of experiment: SPR.
For experiment [38] the target is unchanged. Briefly: ELISA, gp120 on plate.
Experiment [39] concerns the target CH505 w020.14 gp120 (HIV-1). As to the kind of experiment: ELISA, gp120 on plate.
The target of the next experiment is CH505 M11 gp120 (HIV-1). As to the kind of experiment: ELISA, gp120 on plate.

As for CH103 Fab, in experiment [1], the Fabs bound per trimer (Fab per trimer) was found to be 3.
For the substance CH235.12 (antibody), the IC50 (µg/ml) in TZM-bl was above 25 µg/mL in [2]; 0.002 µg/mL in experiment [3]; 0.09 µg/mL in experiment [4]; 0.005 µg/mL in experiment [5]; 0.001 µg/mL in experiment [7]; 0.66 µg/mL in experiment [8]. The IC50 (µg/ml) in TZM-bl in [9] was above 25 µg/mL; in experiment [10] it was 0.07 µg/mL; in [11] it was 0.001 µg/mL; in experiment [12] it was 0.003 µg/mL; in experiment [13], 0.008 µg/mL; in experiment [14], 0.04 µg/mL. Besides, the IC50 (µg/ml) in TZM-bl was found to be 0.014 µg/mL in experiment [16]; 8.95 µg/mL in experiment [17]; 0.003 µg/mL in [18]; 0.003 µg/mL in [19]; 0.001 µg/mL in [20]; 0.1 µg/mL in experiment [21]. Moreover, the IC50 (µg/ml) in TZM-bl came to 0.015 µg/mL in [22]; 1.08 µg/mL in [23]; 0.04 µg/mL in experiment [24]; 0.26 µg/mL in [25]; 24.2 µg/mL in experiment [26]; 0.01 µg/mL in [27]. In addition, the IC50 (µg/ml) in TZM-bl in experiment [28] was 0.01 µg/mL; in experiment [29] it was below 0.02 µg/mL; in experiment [30] it was 0.02 µg/mL; in [31], 0.01 µg/mL; in experiment [32], 0.06 µg/mL; in experiment [33], 0.04 µg/mL. In addition, the IC50 (µg/ml) in TZM-bl in [34] came to 0.02 µg/mL; in experiment [35], 0.03 µg/mL. The IC50 (µg/ml) in TZM-bl cells in [6] and in [15] was below 0.005 µg/mL in each case.
Regarding “CH103 lineage unmutated common ancestor (UCA) (antibody)”, the fold improvement of the off-rate against CH505 TF gp120 in experiment [36] came to 10 fold. Further, in [37], the dissociation constant (Kd) was 0.2 µM. For the same substance, the log AUC stood at 3.5 log AUC in [38], 0.3 log AUC in experiment [39] and 2.6 log AUC in the experiment with CH505 M11 gp120 (HIV-1).
